# Results published in the DeepSol protein solubility set.
# Assay: soluble on expression in E. coli; label from the status in PepcDB or PDB records
row,Sequence,soluble on expression in E. coli
1,MGLTTMGLTTMGLTTKGLTTMGLTTKGLTTKGLTTMGLTTKGFTTKGLTTMGVTTKGLTTMGLTTKGLTTKGLTTKGFTTKGLTTMGLATMGLTTKGLTTMGLTTMGLTTKGLTTKGLTTKGLTTKGLTTKGLTTMGLTTKGFTTKGLTTMGLTTMGLATMGLTTKGLTTMGLTTKGFITKGLTTMGLATMGLTTMGLTTKGLTTKGLTTKGLTTMGLTTKGFITKGLTTMGLATMGLTTMGLTTKGLTTMGLTTMGLTTKGLTTKGLTTKGLTTKGLTTKGLTTMGLTTKGFTTKGLTTMGLATMGLATMGLTTMGLTTKGLTTKGLTTKGLTTKGLTTMGLTTKGFTTKGLTTMGLTTMGLTTKGLTTKGLTTKGLTTKGLTTMGLTTKGFTTKGLTTMGLATMGLTTKGLTTMGLTTKGFITKGLTTMGLATMGLTTMGLTTKGLTTKGLTTKGLTTMGLTTMGLTTMGLTTMGLTTMGLTTMGLTTMGLTTKGLTSQGVMDQAGVNRVEGEPINRLRTCEGKGNGRGDMQGVGNLGKALRGREDSLIVSSETRGFPRMGLWPGFPPIEYQGQVQSLE,not soluble
2,MGMKYLIKLKYIKPAQLAVNREQKLAEFYPIFEDGTLGRVEAKARVFLPEYSDFAKGLGFEVKKRRMITEDDYAYLRAMVYGVVMGVLRNPGDWRRLEERVLEMEPIELRYWASKFRNAYWKYKNMRKLMFLARRFMEVEMILEHHHHHH,soluble
3,MGNAKSTDSNPKKSVRRKSATTPSTSSSSRPSISSQGNRKPILSVNQRQIIKGCMDNSKDDLGERIFRRALERRDDFKQFIDNLSKGQRYENSQYLKQFLLGIVENIMDIDEINRISEEFGCNHVQFRANGFKPDFFACTADAVTTECTFLDQAAHPTSETAAAWSLLTSHVFSAVRDGYYAELRRQRKSSNAFRARVSVDVVSTGTDDGTSLSSATRRSNSPQEEIAESFDHHTVENNCVESSGNFLAPPTVY,not soluble
4,MGNCLKSPTSDDISLLHESQSDRASFGEGTEPDQEPPPPYQEQVPVPVYHPTPSQTRLATQLTEEEQIRIAQRIGLIQHLPKGVYDPGRDGSEKKIRECVICMMDFVYGDPIRFLPCMHIYHLDCIDDWLMRSFTCPSCMEPVDAALLSSYETN,soluble
5,MGNDKRVRKPEWLKISIGANERYTETKRIVESHCLHTICSSGRCPNMGECWGKGTATFMIAGDICTRSCKFCNTQTGRPLPLDPDEPTHVAESIALMKLSHAVITSVDRDDLPDLGAAHWAQTIREIKRLNPETTTEVLIPDFQGRKELVDQVIKACPEIISHNMETVKRISPQVRSAANYHTSLEVIRQIAESGITAKSGIMVGLGETPAEVEELMDDLISVGCKILTIGQYLQPTHKHFPVAAYITPEQFAVYKETGLKKGFEQVESAPLVRSSYHAEKHIRFNNK,not soluble
6,MGNEEEKMNADIFSYEGEGIQCVYDNKNWVMCIKNWKPNNDIENIRYLEVHHATDEQFVLLKGKAVLLAAVKADGACRIDVIPMEPYKVYNIPQGIWFNTITQKDTKLVYVQDAATTAENSEYCDMTQEELNEVKEKASACLD,not soluble
7,MGNFHATTIFAVHHNGECAMAGDGQVTMGNAVVMKHTARKVRKLFQGKVLAGFAGSVADAFTLFEMFEGKLEEYNGNLQRAAVEMAKQWRGDKMLRQLEAMLIVMDKTTMLLVSGTGEVIEPDDGILAIGSGGNYALSAGRALKQYASEHLTAKQIAKASLEIAGDICVYTNHNIIVEEL,not soluble
8,MGNIMSASFAPECTDLKTKYDSCFNEWYSEKFLKGKSVENECSKQWYAYTTCVNAALVKQGIKPALDEAREEAPFENGGKLKEVDK,soluble
9,MGNKRVLITGATGFIGGYLVDEALRRQYEVWAAVRPHSDRSRLTDSRIRFVEIDYRDPSDIARLADKIAPEGESAWHLVIHNAGITKARDTSLFREINAEQTKRFLIGLQGAKHCPERFVLMSSMGSYGAPPDDCQPLSSSSVPKPTTAYGESKLLAEQYVQTFVTIPYTIIQPTGVYGPHDQDYLMAIRSVDKGFDFSTGNTPQTLTFIYAEDLASAVFIAAEHPDAAGQKYIVSDGKEYTDIEFGRMIQHLLDRKNVCHLRIPLPLVKATCYIGQKWADISGTLTPLNLDKYAIIAQRNWRCDSSPIRAIGFSPRYNLEQGLAETIRWARTTGQIRR,not soluble
10,MGNWLLPEGLADVLPAEARRIEELRRELLDLYRTYGFELVAPPLVEYIDSLLSSTGSDLNLRTCKLVDQLSGRTLGVRADMTSQVTRIDAHLLNRAGVTRLCYCGSVLHARPADLLSSRELLQIGAEIYGHAGFEADLEIIQLVMDTLATAGVRNARLDLCHSGVMRAIFDADPQASRHAGDLCTLLREKDVPGLAELASRVDGLGEDTVRALQALATLYGGPEIIARARRELPAVPGMAQALDALQALVDAMPGVTLSVDLADVGGYGYHSGVTFAVYGEDWHDALVRGGRYDDVSRAFGRARPATGFSLDLRKLAAGLTPAEPARAVRAPWGQDPALTDAVRRLRRSGEIVVQVLPGHEQGLDEFVCDRELALQDGAWTVRTL,not soluble
11,MGNYFPYAFEDKRYHTWNYHLKNKFGQKIFKVALDGGFDCPNRDGTVAHGGCTFCSAAGSGDFAGNRAEPIEVQFKKIKERMHEKWSEGQYIAYFQAFTNTHAPVEVLKEKYEPVLKEDGVVGLSIATRPDCLPDDVVEYLAELNQRTYLWVELGLQTVHQSTSDLINRAHDMQTYYDGVTKLRKHNINVCTHIINGLPGENYDMMMETAKEVAQMDVQGIKIHLLHLLKGTPMVKQYEKGMLEFMSQQDYTNLVCDQLEVLPPEMIVHRITGDGPIDLMVGPMWSVNKWEVLNEIDNELARRNSYQGKMNKQSIQS,not soluble
12,MGNYLLRKLSCLGENQKKPKKGNPDEERKRQEMTTFERKLQDQDKKSQEVSSTSNQENENGSGSEEVCYTVINHIPHQRSSLSSNDDGYENIDSLTRKVRQFRERSETEYALLRTSVSRPCSCTHEHDYEVVFPH,soluble
13,MGPVFVVGQIDEMVPHPDSDHLNICQVNIGDKKVQIVAGAPNASPGLKTIVALPGAMMPSGALIFPGKLRGEDSYGMMCSPRELALPNAPQKRGIIELDDSAVVGEALEHHHHHH,not soluble
14,MGPVPIKLALVIPNYNHSAAISQALSELAALNLPCYLIDDGSNDETRYLLQSLAEQHDWVTLLQHPYNRGKGAAVMTGLRSAYRDGFTHALQVDADGQHNLSDIPAMLAKAQAKPDALISGKPEYDKSVPKGRLYGRYLTHFWVWVETLSFDIQDSMCGFRVYPLAATERLFSKQALTERMDFDIEILVKLYWQGVEILFHPTKVIYPENGVSHFQCVADNVRISKLHTRLFFGMLKRLPQLLRRKQAAKSTSSAHTATHWSAMKERGSYWGIKLLVESYRFGGHWLCRAIMYPVICYFFLTGKVSREASRDFLRRVQHLEPQHPQLNQPVGWRDSLNHFIAFGNAALDRIDAWCDRIQLSQVDFPDRQVLADQLESGKGAVLLVSHLGNLELCRAISIHQRKVKVNVMVLTSHAENFNNVLKQLNPNSSLNLIQVTELNPATSMLLQQKIEDGELVVIAGDRTSSHAQGRVVYAPFMGQDAAFPQGPFILAGLLDCPVYLMFCLREQGRYRVHLERFAETLKGPRAGRMERLQQAVYRYSERLEHYARREPLQWFNFFDFWRDDNQVNRATSAHKTTAALPEQERTTDRTEHLLEHHHHHH,soluble
15,MGQGQSVILSFEDGARTVELARESVEAFVQNGQREQPGSMRDAFYNRTSAFVRLESTRGRGRLRGCAGAHGSIHELGNHDQQLGHAIVEAAIEAASEASCGSEVEDAELPNIRVSVCTVSNLVLTDDPIEDIELGVHGVAIDGDGQHGWMYPTLPVENDWSVFEYLDRTCRKANLPDGAWQDEDVMVTLFEGQVFRETGDEDDPVEELTALEHHHHHH,not soluble
16,MGQRQAKQHMQAGVKLYHQRHYAQAINKWRQSLNRLNNAEDRFITLGYLAQALCDQGEYEGMLSYALSQMQLATDQNDSAMKCEAFLNLAKAYERLADFTKALQYGKASLEHPSMDPRTPGYAHLTIALAHLGMSQFQQCLESFESAMNVANETSDRLLELQICVGLGSLFTLLRDITKALIFLRNALAIVQSVTVDDVHAKYRCLILYHLSVALRMKGSLVDAKEACDEASQLAVEMGNRAIHARCMCSLADIYRELGESEAKETITKSWARYEDAYRVMRGANDKMGEVLVLSSMAKSASESRSHYTGQCECQAIQLNKKCIEIANQIGCKHVVLKCHLRLAELYSQLNDDDSEETARRAASRLTQEMQLFCNFCGQRYGLKDESLQALRCSHIFHEKCLHTYLLQRTDQTCPKCRCRAVLSDNISIRSSIASTIDVQSPSTSFAPPGGVATPLVSAAAELGDITPQATLTRRSQQDKILRGAEKDIDRVDRSLARLKSQQSAAANACSAVAVPSPEVPSTTASCASEPILTASTTSQSHTHSNANHKPPPPPRKPCCSQAALPPSSIVALPPAMPLAEDGPLVITHTPTVTDV,not soluble
17,MGRFQTLDYEIPESMQRSWQDIVNLLAQIADVPTTLIMRVHQNHIEVNTSSDTQGNPYKAGDKEDLGHGLYCEHVIETKSQLVVPDALADEKWSNNPDIKLGMLSYCGLPLFWPNGETFGTICMLDSKANEYSETYRQLLNTFKDSIEAQLAVVYQQYKLLR,not soluble
18,MGRIFLDHIGGTRLFSCANCDTILTNRSELISTRFTGATGRAFLFNKVVNLQYSEVQDRVMLTGRHMVRDVSCKNCNSKLGWIYEFATEDSQRYKEGRVILERALVRESEGFEEHVPSDNS,soluble
19,MGRKSKNSSQSHAHGPVPGVYPTTTGEVELRADSFLPHAFEVYVNGVPSSHIAQDPEQLEYEYMRWIAAIVDWFVTTHSDPKKLRVTHLGGGACTLARYVCHRYPNARNTVVELDATLATLVREWFDLPRSPQLKIRVGDAWEVAQTFVPSSRDVIIRDVFAGNQTPRRLTTVEFFQQCHQALSPGGLYVANCGDHRDLNVAKAEVQGLREVFDHVACIADPTMLKGRRYGNIILIATDTQLPTDQEQQVLTRLLLGGGVPAQFKGGNWTKNFSSSSTARHD,not soluble
20,MGRQAFEFGLRPKDQFKVMQHFDLNTNHLEVLNRLYTPLIGTQAVGLYHFMTQFVKDSHNETLILSHYIFMNELKINLLEFRQQMDLLEAIGLLKAFVKHDEQETQFVYQLIQPPSAHLFFNDPMLSIFLYSEVEHRRFHELKKYFEYQQIDLSEFKQVTRQFTDVFKVPSTKIDIDTSDIPINEPYQGIDLSNESFDFEMLRQMLGKHFISQDIVTKDAKRLITQLATLYGLTADGMKHVILNSITSGQQLSFEEMRKQARSYYLMEHENQMPKLQVKSPATSSSTGKSSEVNPKPQSDEWFELLEQTSPIDMLASWSESEPTISQKTMVEELIEREKMSFGVINILLQFVMLKEDMKLPKAYILEIASNWKKKGIKTAKEAYNYAKKVNQPKNEGSSGNYQKRGSYYGQRNRISKEKTPKWLENRDKPSEEDSAKDNSVDDQQLEQDRQAFLDKLSKKWEEDSR,not soluble
21,MGSANGKTLGEVWKRELNLLDKRQFELYKRTDIVEVDRDTARRHLAEGKVDTGVAVSRGTAKLRWFHERGYVKLEGRVIDLGCGRGGWCYYAAAQKEVSGVKGFTLGRDGHEKPMNVQSLGWNIITFKDKTDIHRLEPVKCDTLLCDIGESSSSSVTEGERTVRVLDTVEKWLACGVDNFCVKVLAPYMPDVLEKLELLQRRFGGTVIRNPLSRNSTHEMYYVSGARSNVTFTVNQTSRLLMRRMRRPTGKVTLEADVILPIGTRSVGSSSHHHHHH,soluble
